Laboratory results reported in paper PMC8115288 (2021).

Experiments:
[1] = target: T1, GST-CTD (C-terminal domain of HIV-1 integrase, aa 201-288) (HIV-1 (Hx3B), UniProt P04585 1348-1435); test: GST-CTD 0.083 uM
T1 chain: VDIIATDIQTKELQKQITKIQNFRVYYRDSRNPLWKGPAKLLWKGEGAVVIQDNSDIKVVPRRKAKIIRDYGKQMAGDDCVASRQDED

[2] = target: T1, GST-CTD (C-terminal domain of HIV-1 …); test: GST-CTD 0.027 uM

B1: His6-SUMO-INI1_(183-304) (domain or fragment)
chain: PEVLVPIRLDMEIDGQKLRDAFTWNMNEKLMTPEMFSEILCDDLDLNPLTFVPAIASAIRQQIESYPTDSILEDQSDQRVIIKLNIHVGNISLVDQFEWDMSEKENSPEKFALKLCSELGLG
Kd [1]: 3 nM | Kd [2]: 3.5 nM
